Among the data in WO2013011062A2 (dated 2013) are binding result and Kd values, retold here.

Test [1] concerns the target T1, Human OSCAR (osteoclast-associated receptor), full length, on cells (human).
T1 construct: also called hOSCAR; HEK-OSCAR cells
T1 chain: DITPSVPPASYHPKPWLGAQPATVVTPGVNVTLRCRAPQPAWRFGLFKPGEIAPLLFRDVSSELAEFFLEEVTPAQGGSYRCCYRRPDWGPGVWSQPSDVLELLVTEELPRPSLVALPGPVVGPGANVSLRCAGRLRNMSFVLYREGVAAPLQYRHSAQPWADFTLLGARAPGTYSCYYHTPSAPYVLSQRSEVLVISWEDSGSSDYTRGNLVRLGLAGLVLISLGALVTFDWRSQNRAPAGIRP
The test is described as follows: flow cytometry on human monocytes (CD14+ PBMC), Alexa Fluor 647-labelled mAb at 0.5 ug/ml. Background: A flow cytometer gives signals particle by particle.

For test [2], the target named is T2, Human collagen I (human, UniProt P02452 162-1218; P08123 80-1119).
T2 construct: Bought (Sigma C5483); also called ColI; collagen 1
The experiment in a line: SPR.

T2 sequence (P02452 162-1218, chain 1 of 2): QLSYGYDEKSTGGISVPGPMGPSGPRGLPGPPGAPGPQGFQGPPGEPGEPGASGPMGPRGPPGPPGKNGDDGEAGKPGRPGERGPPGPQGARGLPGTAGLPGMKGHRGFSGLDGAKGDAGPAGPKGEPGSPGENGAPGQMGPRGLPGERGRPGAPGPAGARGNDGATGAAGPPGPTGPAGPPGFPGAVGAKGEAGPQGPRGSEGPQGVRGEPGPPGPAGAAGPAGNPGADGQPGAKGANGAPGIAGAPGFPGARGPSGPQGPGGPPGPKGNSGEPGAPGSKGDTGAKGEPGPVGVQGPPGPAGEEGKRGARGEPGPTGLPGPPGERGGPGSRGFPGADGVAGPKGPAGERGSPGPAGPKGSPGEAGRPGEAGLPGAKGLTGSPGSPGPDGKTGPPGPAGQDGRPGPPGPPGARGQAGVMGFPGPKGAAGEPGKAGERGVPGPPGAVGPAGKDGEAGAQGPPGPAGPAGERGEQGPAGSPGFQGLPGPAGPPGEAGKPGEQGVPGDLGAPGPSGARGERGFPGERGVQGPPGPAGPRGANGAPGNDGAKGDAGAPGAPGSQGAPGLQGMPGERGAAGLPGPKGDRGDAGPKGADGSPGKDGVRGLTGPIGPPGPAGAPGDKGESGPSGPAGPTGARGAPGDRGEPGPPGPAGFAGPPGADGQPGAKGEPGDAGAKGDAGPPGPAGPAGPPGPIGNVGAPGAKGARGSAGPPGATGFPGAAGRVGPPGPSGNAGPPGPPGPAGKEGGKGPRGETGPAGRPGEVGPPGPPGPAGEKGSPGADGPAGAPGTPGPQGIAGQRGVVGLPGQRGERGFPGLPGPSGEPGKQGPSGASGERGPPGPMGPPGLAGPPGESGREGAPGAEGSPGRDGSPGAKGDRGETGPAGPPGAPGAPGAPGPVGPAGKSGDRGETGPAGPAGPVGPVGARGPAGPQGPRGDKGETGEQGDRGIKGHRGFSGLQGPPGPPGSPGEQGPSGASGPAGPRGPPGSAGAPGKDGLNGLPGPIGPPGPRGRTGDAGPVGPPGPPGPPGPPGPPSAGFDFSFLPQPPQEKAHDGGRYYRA
T2 sequence (P08123 80-1119, chain 2 of 2): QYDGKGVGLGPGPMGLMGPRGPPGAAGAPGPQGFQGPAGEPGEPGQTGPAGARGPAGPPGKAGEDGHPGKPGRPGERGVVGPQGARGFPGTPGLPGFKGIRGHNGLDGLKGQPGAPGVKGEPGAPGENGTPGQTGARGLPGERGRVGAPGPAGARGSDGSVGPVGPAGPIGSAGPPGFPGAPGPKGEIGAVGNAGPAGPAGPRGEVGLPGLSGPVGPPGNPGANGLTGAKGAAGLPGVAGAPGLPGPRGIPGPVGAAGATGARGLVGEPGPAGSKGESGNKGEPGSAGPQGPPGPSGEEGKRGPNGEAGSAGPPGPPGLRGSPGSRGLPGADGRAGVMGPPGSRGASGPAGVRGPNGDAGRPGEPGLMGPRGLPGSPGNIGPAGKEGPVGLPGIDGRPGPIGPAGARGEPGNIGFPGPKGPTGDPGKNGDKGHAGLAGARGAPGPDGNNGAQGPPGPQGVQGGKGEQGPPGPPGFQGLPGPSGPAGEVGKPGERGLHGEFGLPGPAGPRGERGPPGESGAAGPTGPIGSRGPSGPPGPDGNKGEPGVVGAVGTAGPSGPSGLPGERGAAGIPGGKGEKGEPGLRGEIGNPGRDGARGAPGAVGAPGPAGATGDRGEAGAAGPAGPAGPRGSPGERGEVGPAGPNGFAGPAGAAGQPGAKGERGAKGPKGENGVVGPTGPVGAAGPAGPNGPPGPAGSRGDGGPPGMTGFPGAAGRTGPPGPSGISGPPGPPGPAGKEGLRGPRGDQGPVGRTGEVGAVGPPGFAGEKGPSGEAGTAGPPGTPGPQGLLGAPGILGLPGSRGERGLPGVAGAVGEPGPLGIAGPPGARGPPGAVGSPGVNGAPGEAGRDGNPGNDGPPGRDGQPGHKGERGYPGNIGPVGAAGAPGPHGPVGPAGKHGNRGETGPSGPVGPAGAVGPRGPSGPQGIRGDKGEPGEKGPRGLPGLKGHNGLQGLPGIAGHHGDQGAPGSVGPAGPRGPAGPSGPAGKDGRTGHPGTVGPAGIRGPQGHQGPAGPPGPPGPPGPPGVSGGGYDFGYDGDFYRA

B1: anti-OSCAR mAb 16F56A2 (antibody, V domains shown)
VH: QVQLVQSGAEVKKPGSSVKVSCKASGGTFSNYAISWVRQAPGQGLEWMGRIIPILGIAHNAQKFQDRVTITADKSTSTAYMELSSLRSEDTAVYYCASPSSGKGLPYWFFDLWGRGTLVTVSS
VL: DIQMTQSPSFLSASVGDRVTITCRASQSISSYLNWYQQKPGKAPKLLIYAASSLQSGVPSRFSGSGSGTDFTLTISSLQPEDFATYYCQCGYSTPLTFGGGTKVEIKR
notes: Human mAb
In the case of B1, the binding result in test [1] was “binds”.

B2: recombinant extracellular domain of human OSCAR (OSCAR-ECD) (receptor)
chain: DITPSVPPASYHPKPWLGAQPATVVTPGVNVTLRCRAPQPAWRFGLFKPGEIAPLLFRDVSSELAEFFLEEVTPAQGGSYRCCYRRPDWGPGVWSQPSDVLELLVTEELPRPSLVALPGPVVGPGANVSLRCAGRLRNMSFVLYREGVAAPLQYRHSAQPWADFTLLGARAPGTYSCYYHTPSAPYVLSQRSEVLVISWEDSGSSDYTR
notes: The printed entry starts with the putative signal peptide; also called Human OSCAR-ECD; OSACAR-ECD
On to B2, for which the Kd – broadly, the constant that tells how readily two partners part at equilibrium – in test [2] came out at 255 nM.

B3: anti-OSCAR mAb 13F5A5 (antibody, V domains shown)
VH: EVQLVQSGAEVKKPGESLKISCKGSGYSFTSYWIVWVRQMPGKGLEWMGSIYPGDSDARYSPSFQGQVTISADKSISTAYLQWSSLKASDTAMYYCARQKITMVRGVIITPLDGMDVWGQGTTVTVSS
VL: not shown
notes: Fully human mAb (HuMab mice)
Consider B3, for which, in test [1], the binding result is recorded as “binds”.
